In patent US20240317834A1, “COMPOSITIONS AND METHODS FOR NEUROLOGICAL DISEASES” (CODA BIOTHERAPEUTICS, INC., priority 2020, published 2024):

Legend:
Format in all cases: cell-based
[1] = system: Lenti-X 293T cells; assay: YFP fluorescence quenching anion reporter plate reader assay of engineered receptors stimulated with acetylcholine or a non-native ligand
How it was run: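 Lenti-X 293T cells carrying a YFP anion reporter were transiently transfected with channel DNA and assayed the next day in HEPES-buffered ECS at pH 7.2. Ligand (acetylcholine or non-native ligand) was added in NaI-substituted ECS. Percent quench was the mean of the last 10 s relative to the 15 s pre-addition baseline.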

[2] = system: rat hippocampal neurons; assay: Spontaneous firing rate of rat hippocampal neurons (current clamp)
Description: For manual patch clamp experiments, Cells plated on coverslips were visualized at 10× and 40× on an inverted fluorescence microscope (Olympus). Recordings were made with an Axopatch 200B amplifier and Digidata 1550B (Molecular Devices) at RT using 3-6 MOhm glass patch electrodes (Sutter, BF150-86-10). Unless otherwise stated, recordings were made in extracellular solution (ECS) containing: 140 mM sodium chloride, 4 mM potassium chloride, 1 mM magnesium chloride, 2 mM calcium chloride, 10 mM HEPES, and 10 mM D-(+)-glucose (pH=7.3 with sodium hydroxide, osmolarity=305−315 mOsm). An 8-line reservoir (AutoMate Scientific) in combination with an 8-channel zero-dead-volume perfusion pencil (AutoMate Scientific) was used for perfusion. Data was acquired using pClamp software (Molecular Devices). Traces were either analyzed in Clampfit (Molecular Devices) or using custom Python code. […]
Spontaneous activity was recorded in gapfree mode, in the presence and absence of a compound. […] For both methods, minimum height, average height, maximum height were measured and frequency was calculated as the number of events in the epoch divided by the length of time of the epoch. For Clampfit, the resting membrane potential was measured at 3 points between events and averaged for each epoch. […] For both methods, membrane potential was corrected for the calculated liquid junction potential. […]

[3] = system: rat hippocampal neurons; assay: Evoked rheobase shift in rat hippocampal neurons (current clamp)
Description: For manual patch clamp experiments, Cells plated on coverslips were visualized at 10× and 40× on an inverted fluorescence microscope (Olympus). Recordings were made with an Axopatch 200B amplifier and Digidata 1550B (Molecular Devices) at RT using 3-6 MOhm glass patch electrodes (Sutter, BF150-86-10). Unless otherwise stated, recordings were made in extracellular solution (ECS) containing: 140 mM sodium chloride, 4 mM potassium chloride, 1 mM magnesium chloride, 2 mM calcium chloride, 10 mM HEPES, and 10 mM D-(+)-glucose (pH=7.3 with sodium hydroxide, osmolarity=305−315 mOsm). An 8-line reservoir (AutoMate Scientific) in combination with an 8-channel zero-dead-volume perfusion pencil (AutoMate Scientific) was used for perfusion. Data was acquired using pClamp software (Molecular Devices). Traces were either analyzed in Clampfit (Molecular Devices) or using custom Python code. Plotting and statistics were performed in GraphPad Prism.
No holding current was applied to the membrane for cells included in the final datasets. Data acquisition settings and analysis methods were the same as for the DRG rheobase experiments.

B1: CODA1140: engineered chimeric LGIC receptor, R101F, L131N, S172D in SEQ ID NO: 33 (protein)
chain: MRCSPGGVWLALAASLLHVSLQGEFQRKLYKELVKNYNPLERPVANDSQPLTVYFSLSLLQIMDVDEKNQVLTTNIWLQMSWTDHYLQWNVSEYPGVKTVFFPDGQIWKPDILLYNSADERFDATFHTNVNVNSSGHCQYLPPGIFKSSCPMDLKNFPMDVQTCKLKFGSWDYGGWSLDLQMQEADISGYIPNGEWDLVGIPGKRSERFYECCKEPYPDVTFTVTMRRRMGYYLIQMYIPSLLIVILSWISFWINMDAAPARVGLGITTVLTMTTQSSGSRASLPKVSYVKAIDIWMAVCLLFVFSALLEYAAVNFVSRQHKELLRFRRKRRHHKSPMLNLFQEDEAGEGRFNFSAYGMGPACLQAKDGISVKGANNSNTTNPPPAPSKSPEEMRKLFIQRAKKIDKISRIGFPMAFLIFNMFYWIIYKIVRREDVHNQ
modifications: synthetic sequence of chimeric LGIC
[1]; 1 nM CNL001, first column
  YFP fluorescence quenching using CNL001: 52.592%
[1]; 1 nM CNL001, second column
  YFP fluorescence quenching using CNL001: 61.248%
[1]; 1 nM CNL002
  YFP fluorescence quenching using CNL002: 0.337%
[1]; 3 nM var, first column
  YFP fluorescence quenching using Varenicline: −6.169
[1]; 3 nM var, second column
  YFP fluorescence quenching using Varenicline: −10.445
[1]; 10 nM CNL001, first column
  YFP fluorescence quenching using CNL001: 71.678%
[1]; 10 nM CNL001, second column
  YFP fluorescence quenching using CNL001: 71.881%
[1]; 10 nM CNL002
  YFP fluorescence quenching using CNL002: 59.894%
[1]; 30 nM var, first column
  YFP fluorescence quenching using Varenicline: −9.679
[1]; 30 nM var, second column
  YFP fluorescence quenching using Varenicline: −10.878
[1]; 50 nM CNL001, first column
  YFP fluorescence quenching using CNL001: 73.807%
[1]; 50 nM CNL001, second column
  YFP fluorescence quenching using CNL001: 75.649%
[1]; 50 nM CNL002
  YFP fluorescence quenching using CNL002: 76.501%
[1]; 50 nM abt
  YFP fluorescence quenching using ABT-126: −7.87%
[1]; 100 nM CNL001, first column
  YFP fluorescence quenching using CNL001: 76%
[1]; 100 nM CNL001, second column
  YFP fluorescence quenching using CNL001: 76.329%
[1]; 100 nM CNL002
  YFP fluorescence quenching using CNL002: 79.03%
[1]; 100 nM abt
  YFP fluorescence quenching using ABT-126: −5.35%
[1]; 300 nM abt
  YFP fluorescence quenching using ABT-126: −3.67%
[1]; 300 nM var, first column
  YFP fluorescence quenching using Varenicline: −9.572
[1]; 300 nM var, second column
  YFP fluorescence quenching using Varenicline: −8.873
[1]; 500 nM var, first column
  YFP fluorescence quenching using Varenicline: −14.656
[1]; 500 nM var, second column
  YFP fluorescence quenching using Varenicline: −11.304
[1]; 1 uM CNL001, first column
  YFP fluorescence quenching using CNL001: 76.168%
[1]; 1 uM CNL001, second column
  YFP fluorescence quenching using CNL001: 74.076%
[1]; 1 uM CNL002
  YFP fluorescence quenching using CNL002: 82.85%
[1]; 1 uM abt
  YFP fluorescence quenching using ABT-126: 3.64%
[1]; 1 uM var, first column
  YFP fluorescence quenching using Varenicline: −13.996
[1]; 1 uM var, second column
  YFP fluorescence quenching using Varenicline: −16.128
[1]; 10 uM abt
  YFP fluorescence quenching using ABT-126: 5.91%
[1]; acetylcholine 10 uM
  percent quench of YFP fluorescence, 10 uM ach: −20.07%
[1]; acetylcholine 30 uM
  percent quench of YFP fluorescence, 30 uM ach: −16.92%
[1]; acetylcholine 100 uM
  percent quench of YFP fluorescence, 100 uM ach: −25.8%
[1]; acetylcholine 300 uM
  percent quench of YFP fluorescence, 300 uM ach: −11.21%
[1]; acetylcholine 1 mM
  percent quench of YFP fluorescence, 1 mM ach: 9.02%
[1]; acetylcholine 3 mM
  percent quench of YFP fluorescence, 3 mM ach: 45%
[2]; +CNL002 @ EC90
  Firing Rate Spontaneous; Rat Hippocampal Neurons, +CNL002 @ EC90: 0.71 ± 0.29 Hz
[2]; Baseline, no ligand
  Firing Rate Spontaneous; Rat Hippocampal Neurons, Baseline: 3.29 ± 0.75 Hz
[3]; +CNL002 @ EC90
  Rheobase Shift Evoked; Rat Hippocampal Neurons, +CNL002 @ EC90: 296.9 ± 72.65 pA
[3]; Baseline, no ligand
  Rheobase Shift Evoked; Rat Hippocampal Neurons, Baseline: 40.63 ± 10.50 pA
